Numbering of substitutions follows the chain as printed.
B1: B1C (antibody, V domains shown)
VH: DVQLQESGPGLVKPSQSLSLTCTVTGYSITSDYAWNWIRQFPGNKLEWMGYIDYSGITSYNPSLKSRISITRDTSKNQFFLQLNSVTTEDTATYYCAREDHYDLAWFAYWGQGTLVTVSA
VL: DIQMTQTTSSLSASLGDRVTISCRASQDISNYLNWYQQKPDGTVKLLIYYTSRLHSGVPSRFSGSGSGTDYSLTISNLEPEDIATYYCHQYSNRPPTFGGGTKLEIK
notes: Chimeric: mouse VH and VL fused to constant regions of human IgG1 heavy chain and kappa light chain; also called the chimeric version of mouse mAb B1
B2: B5(H3L2) (antibody, V domains shown)
VH: QVQLVQSGAVVKKPGASVKMSCKASGYTFTGYYMNWMRQAPGQSLEWLAVINPYNGDTAYNRKFKGRATLTVDKSTSTAYMELSSLRSEDTAVYYCARDDGYHVRFFDVWGQGTTVTVSS
VL: DIQMTQSPSSLSASVGDRVTITCRSSQDISDYLSWLQQKPGGAIKSLIYSTSTLDSGVPSRFSGSRSGTDFTLTISSLQPEDFATYYCLQYASSPPTFGGGTKVEIK
notes: Humanized VH and VL fused to constant regions of human IgG4 heavy chain and kappa light chain; also called humanized B5 with B5/H3 heavy chain and B5/L2 light chain
B3: B5(H2L2) (antibody, V domains shown)
VH: B2 VH with V10E, A49G, A68V
VL: B2 VL
notes: Humanized VH and VL fused to constant regions of human IgG4 heavy chain and kappa light chain; also called humanized B5 with B5/H2 heavy chain and B5/L2 light chain
B4: B5(H4L1) (antibody, V domains shown)
VH: B2 VH with V5R, P41H, A97V
VL: B2 VL with I44P
notes: Humanized VH and VL fused to constant regions of human IgG4 heavy chain and kappa light chain; also called humanized B5 with B5/H4 heavy chain and B5/L1 light chain
B5: B5(H3L3) (antibody, V domains shown)
VH: B2 VH
VL: B2 VL with F71Y
notes: Humanized VH and VL fused to constant regions of human IgG4 heavy chain and kappa light chain; also called humanized B5 with B5/H3 heavy chain and B5/L3 light chain
B6: B5(H1L4) (antibody, V domains shown)
VH: B2 VH with V10E, M37V, A49G, A68V, A79V
VL: B2 VL with S46R, S60K, T69S, F71Y
notes: Humanized VH and VL fused to constant regions of human IgG4 heavy chain and kappa light chain; also called B5(HIL4); humanized B5 with B5/H1 heavy chain and B5/L4 light chain
B7: B5(H3L1) (antibody, V domains shown)
VH: B2 VH
VL: B2 VL with I44P
notes: Humanized VH and VL fused to constant regions of human IgG4 heavy chain and kappa light chain; also called humanized B5 with B5/H3 heavy chain and B5/L1 light chain
B8: B9C (antibody, V domains shown)
VH: EVQLRQSGPVLVKPGASVKMSCKASGYTFTGYYMNWVKQSHGKSLEWLAVINPYNGDTAYNRKFKGRATLTVDKSSSTAYMELNRLTSEDSAVYYCVRDDGYHVRYFDVWGTGTTVTVSS
VL: DIQMTQSPSSLSASLGERVSLTCRASQDISDSLCWLQQKPDGTIKRLIYSTSTLDSGVPKRFSGSRSGSDYSLTISSLESEDFADYYCLQYASSPPTFGGGTKLEIK
notes: Chimeric: mouse VH and VL fused to constant regions of human IgG1 heavy chain and kappa light chain; also called the chimeric version of mouse mAb B9
B9: B11C (antibody, V domains shown)
VH: EVQLQQSGPVLVRPGASVKMSCKASGYTFTNYYMNWVKQSHGKSLEWIGVINPYNGDIAYSQKFKGKATLTVDKSSSTAYMELKSLTSEDSAVYYCARDDGYYVYYFDCWGQGTTLTVSS
VL: B8 VL with S30G, D31G, C34N, Y91N, S93N
notes: Chimeric: mouse VH and VL fused to constant regions of human IgG1 heavy chain and kappa light chain; also called the chimeric version of mouse mAb B11
B10: B7(H4L5) (antibody, V domains shown)
VH: EVQLVQSGAEVKKPGASVKVSCKASGYTFSDYNLNWVRQAPGQTLEWMGLINLDSAATVYNQKFKGKATMTRDQSTSTAYMELSSLRSEDTAVYYCASYDYWGQGTLVTVSS
VL: DIQMTQSPSSLSASVGDRVTITCRASQDISHYLNWFQQKPGKAPKLLIYETSTLDFGVPSRFSGSGSGTDFTFTISSLQPEDIATYYCLQYATYPLTFGGGTKVEIK
notes: Humanized VH and VL fused to constant regions of human IgG4 heavy chain and kappa light chain; also called humanized B7 with B7/H4 heavy chain and B7/L5 light chain
B11: B7(H4L8) (antibody, V domains shown)
VH: B10 VH
VL: B10 VL with L46R
notes: Humanized VH and VL fused to constant regions of human IgG4 heavy chain and kappa light chain; also called humanized B7 with B7/H4 heavy chain and B7/L8 light chain
B12: B7(H1L5) (antibody, V domains shown)
VH: B10 VH with T44G, K67R, A68V, Q74T, A79V
VL: B10 VL
notes: Humanized VH and VL fused to constant regions of human IgG4 heavy chain and kappa light chain; also called humanized B7 with B7/H1 heavy chain and B7/L5 light chain
B13: B7(H5L5) (antibody, V domains shown)
VH: B10 VH with T28S, R72I
VL: B10 VL
notes: Humanized VH and VL fused to constant regions of human IgG4 heavy chain and kappa light chain; also called humanized B7 with B7/H5 heavy chain and B7/L5 light chain
B14: B7(H3L5) (antibody, V domains shown)
VH: B10 VH with T44G, Q74T, A79V
VL: B10 VL
notes: Humanized VH and VL fused to constant regions of human IgG4 heavy chain and kappa light chain; also called humanized B7 with B7/H3 heavy chain and B7/L5 light chain
B15: B7(H2L5) (antibody, V domains shown)
VH: B10 VH with K67R, A68V, Q74T, A79V
VL: B10 VL
notes: Humanized VH and VL fused to constant regions of human IgG4 heavy chain and kappa light chain; also called humanized B7 with B7/H2 heavy chain and B7/L5 light chain
B16: B7(H5L8) (antibody, V domains shown)
VH: B10 VH with T28S, R72I
VL: B10 VL with L46R
notes: Humanized VH and VL fused to constant regions of human IgG4 heavy chain and kappa light chain; also called humanized B7 with B7/H5 heavy chain and B7/L8 light chain
B17: B7(H2L8) (antibody, V domains shown)
VH: B10 VH with K67R, A68V, Q74T, A79V
VL: B10 VL with L46R
notes: Humanized VH and VL fused to constant regions of human IgG4 heavy chain and kappa light chain; also called humanized B7 with B7/H2 heavy chain and B7/L8 light chain
B18: B7(H1L8) (antibody, V domains shown)
VH: B10 VH with T44G, K67R, A68V, Q74T, A79V
VL: B10 VL with L46R
notes: Humanized VH and VL fused to constant regions of human IgG4 heavy chain and kappa light chain; also called humanized B7 with B7/H1 heavy chain and B7/L8 light chain
B19: B7(H6L8) (antibody, V domains shown)
VH: B10 VH with V2F, T28S, R72I
VL: B10 VL with L46R
notes: Humanized VH and VL fused to constant regions of human IgG4 heavy chain and kappa light chain; also called humanized B7 with B7/H6 heavy chain and B7/L8 light chain
B20: B7(H6L5) (antibody, V domains shown)
VH: B10 VH with V2F, T28S, R72I
VL: B10 VL
notes: Humanized VH and VL fused to constant regions of human IgG4 heavy chain and kappa light chain; also called humanized B7 with B7/H6 heavy chain and B7/L5 light chain
B21: B7(H3L8) (antibody, V domains shown)
VH: B10 VH with T44G, Q74T, A79V
VL: B10 VL with L46R
notes: Humanized VH and VL fused to constant regions of human IgG4 heavy chain and kappa light chain; also called humanized B7 with B7/H3 heavy chain and B7/L8 light chain
B22: B3C (antibody, V domains shown)
VH: QVQLQQPGAELLKPGASVKMSCKASGYTFTSYDIHWLKQTPGQGLEWIGAIYPENGDSSYSQKFKDKATLTADKSSNTAYIHLSSLTSEDSAVYYCARGGYYDYVWFPYWGQGTLVTVSA
VL: DVVMTQTPLSLPVSLGDQASISCRSSQSILYSNGYTYLEWYLQKPGQSPKLLIYGVSNRFSGVPDRFSGSGSGTDFTLKISRVESEDMGVYYCFQGTHVPLTFGAGTKLELK
notes: Chimeric: mouse VH and VL fused to constant regions of human IgG1 heavy chain and kappa light chain; also called the chimeric version of mouse mAb B3; B3 (human IgG1 heavy chain and kappa light chain chimeric)
B23: B4C (antibody, V domains shown)
VH: B22 VH with D66G, Y102F
VL: B22 VL with L30V, S85A
notes: Chimeric: mouse VH and VL fused to constant regions of human IgG1 heavy chain and kappa light chain; also called the chimeric version of mouse mAb B4; B4 (human IgG1 heavy chain and kappa light chain chimeric)
B24: B7C (antibody, V domains shown)
VH: EFQLQQSGPELVKPGASVKISCKASGYSFSDYNLNWVKQSNGKTLEWIGLINLDSAATVYNQKFKGKATLTIDQSSTTAYMQLNSLTSDDSAVYYCASYDYWGQGTTLTVSS
VL: DIQMTQSPSSLSASLGERVSLSCRASQDISHYLNWFQQKPDGTFKRLIYETSTLDFGVPKRFSGSRSGSDYSLTIGSLESEDFADYYCLQYATYPLTFGAGTKLELK
notes: Chimeric: mouse VH and VL fused to constant regions of human IgG1 heavy chain and kappa light chain; also called the chimeric version of mouse mAb B7
B25: B10C (antibody, V domains shown)
VH: EFQLQQSGPELVKPGASVKISCKASGYSFTDYNLNWVKESNGKSLEWIGLITLDYGTTIYNQKFKGKATLTVDQSSSIAYMQLNSLTSDDSAVYYCACYDYWGQGTTLTVSS
VL: B24 VL with S22T, H31N, E50A, G76S, T93S
notes: Chimeric: mouse VH and VL fused to constant regions of human IgG1 heavy chain and kappa light chain; also called the chimeric version of mouse mAb B10
B26: B15 (antibody, V domains shown)
VH: EVQLQQSGAELVRPGASVKLSCTASGFNIKDDYMFWVKQRPEQGLEWIGWIDPENGDTEYASKFQGKATITADTSSNTAYLQLSSLTSEDTAVYYCTLYAYWGQGTLVTVSA
VL: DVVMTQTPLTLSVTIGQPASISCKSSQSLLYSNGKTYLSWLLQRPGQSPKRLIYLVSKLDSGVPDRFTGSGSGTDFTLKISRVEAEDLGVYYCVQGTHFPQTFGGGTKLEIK
notes: Mouse mAb from hybridoma; also called mouse anti-LAG-3 mAb B15

Legend:
[1] = target: T1, human LAG-3(ECD)-mFc (human, UniProt P18627 23-450); assay: FACS blocking assay: mAb preincubated with LAG-3(ECD)-mFc (1 µg/mL), blocked ligand MHC class II on Daudi cells, PE anti-mouse Fc
T1 construct: also called hLAG3-mFc; human LAG-3 extracellular domain (ECD) fused to mouse Fc; not shown: mouse Fc
T1 sequence: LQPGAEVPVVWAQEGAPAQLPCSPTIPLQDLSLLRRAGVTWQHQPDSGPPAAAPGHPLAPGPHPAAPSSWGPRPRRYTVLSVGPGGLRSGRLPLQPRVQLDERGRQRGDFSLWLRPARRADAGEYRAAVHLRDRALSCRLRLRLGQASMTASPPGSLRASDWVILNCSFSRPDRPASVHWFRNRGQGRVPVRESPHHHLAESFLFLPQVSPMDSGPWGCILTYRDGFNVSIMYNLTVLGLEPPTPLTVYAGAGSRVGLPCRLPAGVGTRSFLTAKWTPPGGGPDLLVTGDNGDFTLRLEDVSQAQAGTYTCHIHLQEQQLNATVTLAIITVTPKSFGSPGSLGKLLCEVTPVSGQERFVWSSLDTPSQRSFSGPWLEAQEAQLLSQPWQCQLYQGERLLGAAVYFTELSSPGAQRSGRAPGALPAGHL
Method: FIGS. 4A-4D show inhibition of human LAG-3 binding to MHC class II molecules by select anti-LAG-3 mAbs. An in vitro binding assay was performed using recombinant LAG-3(ECD)-mFc and Daudi cells which express human MHC class II molecules. […] The binding of LAG-3(ECD)-mFc to Daudi cells in the presence of anti-LAG-3 mAbs or a control mAb was analyzed by FACS.
(§1) Human Daudi cells were cultured in RPMI+10% FBS. Human LAG-3(ECD)-mFc protein (human LAG-3 ECD fused to mouse Fc) at 1 μg/ml final concentration was incubated with purified mouse, humanized, or chimeric anti-LAG-3 mAbs at various concentrations for 15 minutes at 4° C. The mixture was then added to 100,000 human Daudi cells in a 96-well round bottom plate, mixed and incubated for 15 minutes on ice. Cells were then centrifuged at 1,000 rpm for 5 minutes and washed with FACS buffer (PBS supplemented with 5% BSA) three times. The cells were then incubated with PE-conjugated goat anti-mouse Fc polyclonal antibodies on ice for 15 minutes, washed with FACS buffer three times and then resuspended in FACS buffer containing 0.1 μg/ml PI (propidine iodine) for live/dead cell gating. Cells were then run through the FACS Caliber instrument and the data were analyzed by the Flowjo software. Results of the inhibition of LAG-3 binding to Daudi cells by chimeric mAbs B1C, B3C, B4C, BSC, B9C, and B11C are shown in FIG. 4B.

[2] = target: T1, human LAG-3(ECD)-mFc; assay: FACS competition: mAb preincubated with human LAG-3(ECD)-mFc (1 ug/ml); binding to MHC class II on Daudi cells detected with anti-mouse Fc-PE
Method: as §1
The mouse anti-hLAG-3 mAbs B5 and B7 were humanized to reduce the potential of immunogenicity when used in human patients. The CDRs in both the heavy and light chains of the mouse mAb were grafted into human framework that have the highest possibility of maintaining the proper structure required for antigen binding. Backmutations from human reside to mouse residue were designed when necessary. The sequences of the humanized VH and VL regions are shown in Table 11 and Table 12, respectively. The humanized VH and VL regions were fused to the constant regions of human IgG4 heavy chain and kappa light chain, respectively, to generate humanized mAbs. Constructs corresponding to the mAb sequences were used for transient transfection in 293E cells. Purified mAbs were analyzed for their ability to inhibit hLAG-3 binding to MHC class II molecules on Daudi cells.

Binder	IC50 [2]	further results
B1	–	IC50 (read off the curve) [1]: ~0.4 µg/mL
B2	2.85 nM	–
B3	1.59 nM	–
B4	5.32 nM	–
B5	2.91 nM	–
B6	0.98 nM	–
B7	6.77 nM	–
B8	–	IC50 (read off the curve) [1]: ~0.06 µg/mL
B9	–	IC50 (read off the curve) [1]: ~0.1 µg/mL
B10	1.35 nM	–
B11	0.7 nM	–
B12	1.59 nM	–
B13	0.28 nM	–
B14	4.18 nM	–
B15	1.59 nM	–
B16	0.72 nM	–
B17	0.74 nM	–
B18	0.9 nM	–
B19	1.19 nM	–
B20	0.78 nM	–
B21	0.66 nM	–
B22	–	IC50 (read off the curve) [1]: ~0.4 µg/mL
B23	–	IC50 (read off the curve) [1]: ~0.4 µg/mL
B24	–	IC50 (read off the curve) [1]: ~0.3 µg/mL
B25	–	IC50 (read off the curve) [1]: ~0.3 µg/mL
B26	–	binding result [1]: binds
